For one data set, the system named is T1, COc1cc(C=O)cc(OC)c1O.
T1 construct: calculated Mr 55,173; dimer 120 kDa
Briefly: HPLC, Hanes-Woolf plot. The note with it: 500 μM NAD+, pH 7.0 phosphate buffer, 30 °C. It is filed as biochemical, Sphingobium sp. SYK-6. The text has this:
(§1) HPLC, Hanes-Woolf plot on DesV (SLG_28320)

The next data set relates to T2, COc1cc(C=O)ccc1O.
T2 construct: calculated Mr 55,173; dimer 120 kDa
Briefly: HPLC, Hanes-Woolf plot. As to conditions: 500 μM NAD+, pH 7.0 phosphate buffer, 30 °C. The format is biochemical, Sphingobium sp. SYK-6.
Source text: as §1

Data set [1] concerns the target DesV (SLG_28320 gene product), His-tag fused (Sphingobium sp. SYK-6). The data set can be described thus: SEC; Superdex200 10/300GL, 50 mM KH2PO4-K2HPO4 buffer (pH 7.0) with 150 mM NaCl, 0.5 ml/min; native mass estimated and compared with the monomer size.
In data set [2] the target is LigV (vanillin dehydrogenase), His-tag fused (Sphingobium sp. SYK-6). The description is as above.

DesV (SLG_28320) (Sphingobium sp. SYK-6), sequence (chain, as listed by the source): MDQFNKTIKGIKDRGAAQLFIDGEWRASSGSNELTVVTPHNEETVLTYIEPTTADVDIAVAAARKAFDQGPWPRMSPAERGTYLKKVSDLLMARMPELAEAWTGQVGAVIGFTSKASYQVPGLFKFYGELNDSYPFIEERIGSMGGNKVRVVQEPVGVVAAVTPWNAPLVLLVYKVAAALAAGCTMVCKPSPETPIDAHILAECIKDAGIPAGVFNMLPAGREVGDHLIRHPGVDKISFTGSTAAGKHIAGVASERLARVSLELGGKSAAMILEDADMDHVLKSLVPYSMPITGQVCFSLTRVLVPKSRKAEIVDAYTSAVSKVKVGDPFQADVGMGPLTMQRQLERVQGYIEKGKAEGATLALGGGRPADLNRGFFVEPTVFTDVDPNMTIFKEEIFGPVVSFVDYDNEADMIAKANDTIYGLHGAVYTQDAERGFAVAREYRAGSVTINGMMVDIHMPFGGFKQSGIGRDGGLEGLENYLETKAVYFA

The term Km denotes the substrate concentration at which the rate is half of its maximum. By Vmax is commonly meant the top rate of the reaction or transport when substrate is in excess. For orientation: kcat means the maximal rate divided by the concentration of active sites. A word on the kcat/Km: it is the second-order rate constant that governs catalysis at low substrate concentration. For “DesV (SLG_28320) (Sphingobium sp. SYK-6)”, in the data set on COc1cc(C=O)cc(OC)c1O, the Michaelis-Menten constant (Km) stood at 0.48 ± 0.03 µM, the maximal velocity (Vmax) was 1.08 µmol/min/mg, the kcat was 0.99 ± 0.01 s⁻¹ and the kcat/Km is 2.1e+06 ± 93000 M⁻¹ s⁻¹. For the same substance, in the data set on COc1cc(C=O)ccc1O, the Km came out at 0.47 ± 0.04 µM, the maximum rate (Vmax) is 0.85 µmol/min/mg, the catalytic constant (kcat) is 0.79 ± 0.01 s⁻¹ and the kcat/Km was determined as 1.7e+06 ± 140000 M⁻¹ s⁻¹.

Broadly, the stoichiometry N is the number of molecules, sites or subunits per partner or assembly. On to “DesV (SLG_28320 gene product), His-tag fused (enzyme)”, for which the stoichiometry N in data set [1] is 2.

Take “LigV (vanillin dehydrogenase), His-tag fused (enzyme)”: in data set [2], the stoichiometry N is 4.

Values taken from publication PMC5353671, “A bacterial aromatic aldehyde dehydrogenase critical for the efficient catabolism of syringaldehyde” (Scientific Reports, 2017).
